Laboratory results reported in patent US20060177442A1 (Bristol-Myers Squibb, published 2006).

Target: T1, CD30 on Hodgkin-derived cell lines (L540, L428) (human, UniProt P28908 19-595)
T1 sequence (looked up): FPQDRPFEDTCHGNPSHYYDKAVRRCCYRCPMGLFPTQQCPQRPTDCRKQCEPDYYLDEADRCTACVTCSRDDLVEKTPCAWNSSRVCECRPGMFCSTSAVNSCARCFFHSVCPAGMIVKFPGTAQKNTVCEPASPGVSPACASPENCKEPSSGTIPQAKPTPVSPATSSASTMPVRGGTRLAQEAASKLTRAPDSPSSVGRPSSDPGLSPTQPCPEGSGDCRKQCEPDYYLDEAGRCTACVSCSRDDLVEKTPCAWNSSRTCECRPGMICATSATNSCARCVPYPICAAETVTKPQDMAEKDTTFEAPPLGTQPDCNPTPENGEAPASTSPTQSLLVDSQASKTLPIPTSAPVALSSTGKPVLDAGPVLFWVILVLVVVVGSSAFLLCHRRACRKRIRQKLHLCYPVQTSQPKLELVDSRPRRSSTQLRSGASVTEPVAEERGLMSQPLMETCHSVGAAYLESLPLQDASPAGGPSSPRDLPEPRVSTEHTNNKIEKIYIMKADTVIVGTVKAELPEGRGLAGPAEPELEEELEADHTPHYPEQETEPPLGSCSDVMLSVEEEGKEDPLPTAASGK
Assay: cell-based or functional assay

- NF-κB-responsive luciferase reporter gene in transfected L428 cells: ~2 fold
B1: fully human anti-CD30 monoclonal antibody 5F11 (antibody, V domains shown)
VH: QVQLQQWGAGLLKPSETLSLTCAVYGGSFSAYYWSWIRQPPGKGLEWIGDINHGGGTNYNPSLKSRVTISVDTSKNQFSLKLNSVTAADTAVYYCASLTAYWGQGSLVTVSS
VL: DIQMTQSPTSLSASVGDRVTITCRASQGISSWLTWYQQKPEKAPKSLIYAASSLQSGVPSRFSGSGSGTDFTLTISSLQPEDFATYYCQQYDSYPITFGQGTRLEIK
